Test [1] has as its target T1, HLA-A2 (human).
T1 construct: allele written as A*02:01 on that basis; also called HLA-A2.1; A2.1
The test can be described thus: immunofluorescence staining of ovarian tumor OVA-16.

For test [2], the target named is T1, HLA-A2. The experiment in a line: immunofluorescence staining of ovarian tumor OVA-14.
Test [3] has as its target certain MHC Class I heavy chains other than HLA-A2. The experiment in a line: cell-based or functional assay.
For test [4], the target named is T1, HLA-A2. The test can be described thus: HLA-A2 stabilization on T2 cells, against D113.
For test [5], the target named is T1, HLA-A2. The experiment in a line: HLA-A2 stabilization on T2 cells.

mAb MA2.1 (anti-HLA-A2) (antibody): the % HLA-A2 positive cells in test [1] was determined as 85.3%; in test [2], 92.1%. Further, the mean fluorescence amounted to 42 in test [1] and 49 in test [2].
RFRELVSEFSRMAR [C43 (HER-2:968-981)] displayed an inhibition of lysis of OVA-1 tumor (HLA-A2 negative) by autologous CTL-1 after pre-pulsing with peptide in test [3] of 45%.
In the case of GLYQGCQVV (Synthetic analog) [D115 = HER-2:48-56(48H->G)], in test [4], the binding result is listed as “binds”.
As for ELVSEVSKV [C81 (analog of HER-2:971-979, F->V, RM->KV)], the binding result in test [5] is listed as “binds”.
Regarding RLLYQGCQVV (Synthetic analog) [D114 = HER-2:47-56(48H->L)], the binding result in test [4] is on record as “binds”.
The molecule RFRELIIEFSRMAR [C44 (analog of HER-2:968-981, VS->II)] registered an inhibition of lysis of OVA-1 tumor (HLA-A2 negative) by autologous CTL-1 after pre-pulsing with peptide in test [3] of 25%.
Consider ELVSEFSRV (Synthetic analog of C85) [C84 (HER-2:971-979(Val))], for which, in test [5], the binding result was “binds”.

Source of the values: US20030027766A1 (University of Texas, published 2003).
